Laboratory results reported in the nanobody polyreactivity screen of Harvey et al. (2022).

Experiment: yeast display, Sf9 membrane polyspecificity reagent, FACS + sequencing; frameworks hold sequencing errors
Procedure, shortened: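 After 36–48 hours of galactose induction, yeast (Saccharomyces cerevisiae BJ5465) displaying a synthetic nanobody library were stained at 4 °C for 1 hour with 10% biotinylated, detergent-solubilized Sf9 membrane reagent. Streptavidin microbeads enriched the stained cells before FACS sorting into low and high (top ~1%) gates on anti-HA and streptavidin fluorescence. Each clone's polyreactivity label reflects its gate of origin.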

Row | Sequence | polyreactivity (PSR sort gate)
1 | QVQLVVSGGGLVQAGGSLRLSCAASGRIFWFNAMGWYRQAPGKEREFVATITYRGGSTYYADSVKGRFTISRDNAKNTVYLQMNSLLPEDTAVYYCAASVSYRRYHRFGYWGQGTQVTVSS | high polyreactivity
2 | QVQLVESGGGLVQAGGSLRLSCAASGSTFHRYAMGWYRQAPGKERELVAAITSSGDITYYADSVKGRFTISRDNAKNTVYLQMNSLKPEDTAVYYCNADGFYSWLYDYWGQGTQVTVSS | low polyreactivity
3 | QVQLVESGGGLVQAGGSLRLSCAASGNTSAVYAMGWYRQAPGKERELVASITWSDGITYYADSVKGRFTISRDNAKNTVYLQMNSLKPEDTAVYYCAKSTLYSVEYDYWGEGTQVTVSS | low polyreactivity
4 | QVQLVESGGGLVHAGGSLRLSCAASGSIFGFYTMGWYRQAPGKERELVAAITWSGGRTYYADSVKGRFTISRDNAKNTVYLQMNSLKPEDTAVYYCNRDGRSRWYYASAGYNYWGQGTQVTVSS | high polyreactivity
5 | QVQLVESGGGLVQAGGSLRLSCAASGGTFYRYAMGWYRQAPGKERELVAAISSSGGSTYYADSVKGRFTISRNNAKNTVYLQMNSLKPEDTAVYYCAAYSFQSHNFDYWGQGTQVTVSS | high polyreactivity
6 | QVQLVESGGGLVQAGGSLRLSCAASGRIFYGYAMGWYRQAPGKERELVAAITVSGGDTYYADSVKGRFTISRDNAKNTVYLQMNSLKPEDTAVYYCAAKADKRLDYWGQGTQVTVSS | low polyreactivity
7 | QVQLVESAAGLVQAGGSLRLSCAASGRIFGYYTMGWYRQAPGKERELVAAINGRGTSTYYADSVKGRFTISRDNAKYTVYLQMNSLKPEDTAVYYCAAQLYYYGQYKHFDYWGQGTQVTVSS | high polyreactivity
8 | QVQLVESGRGLVQAGGSLRLTGAASGRIFGLYAMGWYRHAPGKERELVAAISRRGGTTYYADSVQGRFTISRDNAKNTVDLQMNSLKPEDTAVYYCAAATVYLSWYYWGQGTQVTVSS | high polyreactivity
9 | QVQLVESGGGLVQAGGSLRLSCAASGRTFASYAMGWYRQAPGKERELVAGITSGGNTYYADSVKGRFTISRDNAKNTVYLQMNSLKPEDTAVYYCAADRVYLGLFRYEYWGQGTQVTVSS | high polyreactivity
10 | QVQLVESGGGLVQAGGSLRLSCAASGSTFYHYTMGWYRQAPGKERELVARISRSGGSTYYADSVKGRFTISRDNAKNTVYLQMNSLKPEDTAGYYCNKGSFYGSSQVGGTGYDYWGQGTQVTVSS | low polyreactivity
11 | QVQLVESGGGLVQAGGSLRLSCAASGSTLYYYAMGWYRQAPGKERELVASITGSGGNTYYADSVKGRFTISRDNAKNTVYLQMNSLKPEDTAVYYCAKRHFYRHGAYGYWGQGTQVTVSS | high polyreactivity
12 | QVQLVESGGGLVQAGGSLRLSCAASGIIFPVYTKGWYRQAPGKERELVAAISTSGGRTYYADSVKGRFTISRDNAKNTVYLQMNSLKPEYTAVYYCAAKRYTRKAGYYYWGQGTQVTVSS | high polyreactivity
13 | QVQLVESWGGLVQPGGSLRLRCAASGLIFGRNAMGWYRQAPGKERELVAAISWSGGSTYYADSVKGRFTISRDNAKNTVYLQMNSLKPEDTAVYYCYRYRYYGSEDDYWGQGTQVTVSS | high polyreactivity
14 | QVQLVESGGGLVQAGGSLRLSCAASGFTFARYAMGWYRQAPGKERELVAAMTYRGGSTYYADSVKGRFTISRDNAKNTVYLQMNSLKPEDTAVYYCNAGRLWFPGVPEYDYWGQGTQVTVSS | high polyreactivity
15 | QVHLVESGGGLVQAGGSLRLSCAASGSTSNYYVKVWYGQAPGKERELVASISSGGSTNYADSVKGRFSISRDNAKNSVYLQKNSLKPEDTAVYYCARRRFTHRRYRFDFWGQGTQVTVSS | high polyreactivity
16 | QVQHVESGGGLVQAGGSLRLSCAASGSILDGNTMGWYRQSPGKARELVAALTWDCTSTYYADSVKGRFTISRDNAKNSVYLQMNSLKPEDTAVYYCAATKGYSDPSTLYYAYIHYDYWGQGTQVTVSW | low polyreactivity
17 | QVQLVESGGGLDQAGGSLRLSCAASGITLTNNAMGWYRQAPGKERELVAAITRSGGSTYYADSVKGRFTISRDNAKNTVYLQMNSLKPEDTAVYCAARWYSYSGSIRSYDYCGQGTQVTVSS | low polyreactivity
18 | QVQLVESGGGLVQAGGSLRLSSAASGLIFYSYTMGWNRQAPGKERELVAVISRSGTSTYYADSVKGRFTISRDNAKNTVYLQMNSLKPEDTSVYYCAALTRSGPYAYEYWGQGTQVTVSS | high polyreactivity
19 | QVQLVESGGGLVQAGGSLRLSCAASGSTFGHNVMGWYRQAPGKERELVAVISWRGGSTSYADSVKGRFTISRDNAKNTVYLQMNSLKPEDTAVYYCAKPALRYSSRYDSWGQGTQVTVSS | high polyreactivity
20 | QVQHVESGGGLVQAGGSLRLSCAASGFTFRVYAMGWYRQARGKEMELVAAISRSGGSTYYADSVKRRFTISRDNEKNTVYLQMNSLKPEDTAVYYCGGGWKRGRYDYWGQGTQVTVSS | high polyreactivity
21 | QVQLVESGGGLVQAGGSLRLSCAASGSIFYYYVRGWYRQAPGKEREFVAAISWGGDSTYYADSVKGRFTISRDNAKNTFYLQMNSLQPEDTAVYYCNADYPWSVVGYDYWAQGTQVTVSS | low polyreactivity
22 | QVQLVESGGGLVQAGGSLRLTCAASGLTFERYAMGWYRQAPGKETELVAAISIRGGSTYYADSVKGRFTISRYNAKNTVYLQMNSLKPEVTAVYYCSADGRGREYDYWGQGTQVTVSS | low polyreactivity

Row | Sequence | polyreactivity (PSR sort gate)
23 | QVQLVESGGGLVQAGGSLRLSCAASGSTFRSYAMGWYRQAPWKERELVAAISSSGGSTYYADSVKGRFTISRDNANNTVYLQMNSLKPEDTAVYICAADFLYYEYDYWGQGTQVTVSS | low polyreactivity
24 | QVQLVESGGGLVQAGGSLRLSCAASGFTFYRYTMGWYRPARGKESELVARITYSGGSTYYADSVKGRFTISRDNAKNTVYLQLNSVKPVDTAVYYCNARSDFYSRYGYKYDYWGQGTQVTVSS | high polyreactivity
25 | QVQLEESGGGLVQAGGSLRLSCAASGRTFWVYAMGWYRQAPGKERELVAAISRSGVSTYYADSVKGRFTISRDNAKNTVYLQMNSLKPEDTAVYYWAAEARVQFSYDYWGQGTQVTVSS | low polyreactivity
26 | QVQLVESGGGLVQAGGSLRLSCAASGSTFSRYAMGWYRQAPGKERELVAAITSSGGSSYYADSVKGRFTISRDNAKNTVYLQMNSLKPEDTAVYYCAASYQVRYDYWGQGTQVTVSS | high polyreactivity
27 | QVQLVESGGGLVQAGGSLRLSCAASGSIFWYYAMGWYRQAPGKERELVATITSGGTNYADSVKGRFTISRDNAKNTVYLQMNSLKPEDTAVYYCNADVSWSRIFYLGYDSNDYWGQGTQVTVSS | low polyreactivity
28 | QVQLVESVGGLVQAGGSLRISSAASGRTFERNTKGWYRQAPGKERELVAAITYDGGSTYYADSVKGRFTISRDNAKKTVYLKMNSLKPEDTAFYYCNAGGYEIYRSPFDYWGQGSQVTVSS | low polyreactivity
29 | QVQLVESGGGLVQAGGSLRLSCAASGSTFKRYAMGWYRQPPGKERELVASISSGGSTNYADSVKGRFTISRDNAKNSVYLQMNSLKPEDTAVYYCAAGYHVSTRGLIGHFDYWGQGTQVTVSS | high polyreactivity
30 | QVQLVESDGGLDQAGRSLRLSFAASGTIFDPYSMGWYRQEPGKERELVAAISWSDSSTYYADSVKGRFTISRDNAKNTVYLQKNSLKPEDTAVYYCASDYDLYFYLYEYWGQGTQVTVSS | high polyreactivity
31 | QVQLVESGGRLVQAGGSLRLSCAASGRIFRGYAMGWYRQEPGKERELVAAISQSGSSTYYADSVKGRFTISRDNAKNTVYLQMNSLKPEDTAVYYSAVIYVKHFGYWGLGTQVTVSS | high polyreactivity
32 | QVQLVESGGGLVQAGGSLRLSCAASGFIFTGNVMGWYRQGPGKERELVAGITYTSGSTYYADSVKGRFTISRDNAKNTVYLQMNSLKPEDTAVYYCAAEVYVPDYFQHKFDVEYEYWGLGTQVTVSS | low polyreactivity
33 | QVQLVESGGGLVQAGGSHRLSCAASGFTINFYSMGWYRQAPGKERELVAAITASGGGSTYYADSVKGRFTISRDNAKNTVYLQMNSLKPEDTAVYYCNADYTGSFYTYDYWGQGTQVTVSS | low polyreactivity
34 | QVQLVESGGGLVQAGGSLRLSCAASGITFYDNVMGWYRQAPGKERELVAAITSGGSTNYADSVKGRFTISRDNAKNTVYLQMNSLKPEDTAVYYCAAEGISVTAAQSEWYDYWGQGTQVTVSS | low polyreactivity
35 | QVQLVESGGGLVQAGGSLRLSCAASGRIFDRNAMGWYRQAPGKERELVAAISSRGTSTYYADSVKGRFTISRDNAKNTVYLQMNSLKPEDTAVYYCAARPRYASDEFGYWGQGTQVTVSS | low polyreactivity
36 | QVQLVESGGGLVQAGGSLRLSCAASGRTFGYNTMGWYRQQPGKEREFVAAINYSGGSTYYADSVKGRFTISRDYGKNTVYLQMNSLKPEDTAVYYCNAKPRWYVPYDYWGQGTQVTVSS | high polyreactivity
37 | QVQLVESGGGLVQAGGSLRLSCAASGRIFGEYAMGWYRQAPGKERELVAAISGGGSTYYADSVKGRFTISRDNAKNTVYLQMNSLKPEDTAVFYCAVYSVYHEYDYWGQGTQVTVSS | low polyreactivity
38 | QVQLVESGGGLVQAGGSLRLSCAASGGIFYTYAMGWYRQAPGKERELVAGINWSGSSTYYADSVKGRFTISRDNAKNTVYLQMNSLKPEDTAVYYCAARSYSYSTGDYWGQGTQVTVSS | low polyreactivity
39 | QVQLVESGGGLVQAGGSLRLSCAASGRITYYAMGWYRQAPGKERELVAVISWSGSSTNYADSVKGRFTISRDNAKNTVYLQMNSLKPEDTAVYFCAAENAVTGTDGEYYYWGQGTQVTVSS | high polyreactivity
40 | QVPLVESGGGLVQAGGSLRLSCAASGFTFTPYGMGWYRPAPGKERELVAAITWNGGRTYYADSVKGRFTISRDNAKNTVYLQMNSLKPEDTAVYYCAAVAWSWQKRGYWGQGTQVTVSS | high polyreactivity
41 | QVQLVESGGGLVQAGGSLRLSCAASGRTLWSYTMGWYRQAPGKERELVARITIGGSTNYADSVKGRFTISRDNAKNTVYLQMNSLKPEDTAVYYCNARASYSYGSYLSKSYGFDYWGQGTQVTVSS | high polyreactivity
42 | QVQLVESGRGLVHAGGSLRISCAASGSTYTWNVMGWYRQAPGKERELVADINSGADTSYADSVKGRFTISRDNAKNTVYLQMNSLKPEDTGVYYCAADIYVYDYWGQGTQVTVSS | low polyreactivity
43 | QVQLVESGGGLVQAGGSLRLSCAASGRIISYNAMGWYRQAPAKERELVAAISWGGGSTYYADSVKGRFTISRDTAKNTVYLQMNSLKPEDTAVSYCAKGWYRIKRNDYWGQGTQVTVSS | low polyreactivity
